Assay results reported in patent US20170000909.

How the values were obtained:
[1] = molecular target: T1, M1 micelle of fluorescein labelled PPA-1 (not fully specified)
T1 chain: GPLGLAGKWAAAAKAAAAK

M4 micelle = molecular target: T2, M4 micelle
T2 chain: GPLGLAGKWAAAAKAAAAK

Peptide 1 = molecular target: T3, Peptide 1
T3 chain: GPLGLAGKWAAAAKAAAAK

B1: matrix-metalloproteinase 9 (protein)
chain: MRTPRCGVPDLGRFQTFEGDLKWHHHNITYWIQNYSEDLPRAVIDDAFARAFALWSAVTPLTFTRVYSRDADIVIQFGVAEHGDGYPFDGKDGLLAHAFPPGPGIQGDAHFDDDELWSLGKGVVVPTRFGNADGAACHFPFIFEGRSYSACTTDGRSDGLPWCSTTANYDTDDRFGFCPSERLYTQDGNADGKPCQFPFIFQGQSYSACTTDGRSDGYRWCATTANYDRDKLFGFCPTRADSTVMGGNSAGELCVFPFTFLGKEYSTCTSEGRGDGRLWCATTSNFDSDKKWGFCPDQGYSLFLVAAHEFGHALGLDHSSVPEALMYPMYRFTEGPPLHKDDVNGIRHLYGPRPEPEPRPPTTTTPQPTAPPTVCPTGPPTVHPSERPTAGPTGPPSAGPTGPPTAGPSTATTVPLSPVDDACNVNIFDAIAEIGNQLYLFKDGKYWRFSEGRGSRPQGPFLIADKWPALPRKLDSVFEERLSKKLFFFSGRQVWVYTGASVLGPRRLDKLGLGADVAQVTGALRSGRGKMLLFSGRRLWRFDVKAQMVDPRSASEVDRMFPGVPLDTHDVFQYREKAYFCQDRFYWRVSSRSELNQVDQVGYVTYDILQCPED
MMP-9 cleavage efficiency (RP-HPLC after 24 hrs) [1]: estimated to be 41%
Michaelis-Menten kinetics (Kcat and KM) from fluorescein signal increase upon cleavage of the Dabcyl label (M4 micelle): this substrate for MMP-9 is comparable to standard substrate
MMP-9 cleavage efficiency (RP-HPLC after 24 hrs) (Peptide 1): quantitative
